The record followed here is article PMC3024538.

The assay concerns the target HLA A*0201 α chain with β2m, recombinant, biotinylated. Nature of the assay: SPR. In general terms: SPR reads the build-up and loss of mass on a sensor chip optically.

Melan-A/MART-1 26-35 peptide […]: the half-life of the pMHCI complex was 6 h.
